According to patent US20210206847A1:

Target: biotin-labeled soluble FcRn protein (UniProt P55899)
Test: SPR; pH 6.0

biotin-labeled soluble FcRn protein, sequence (P55899 24-297, chain 1 of 2): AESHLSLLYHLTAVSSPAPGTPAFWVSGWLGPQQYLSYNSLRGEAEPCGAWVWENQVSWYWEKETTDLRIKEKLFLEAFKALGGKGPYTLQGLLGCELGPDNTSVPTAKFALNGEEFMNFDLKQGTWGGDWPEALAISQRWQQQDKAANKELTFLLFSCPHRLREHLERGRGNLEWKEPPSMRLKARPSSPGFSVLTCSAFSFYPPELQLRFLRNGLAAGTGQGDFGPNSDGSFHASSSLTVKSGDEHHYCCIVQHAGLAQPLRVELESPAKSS
biotin-labeled soluble FcRn protein, sequence (main, as listed by the source, chain 2 of 2): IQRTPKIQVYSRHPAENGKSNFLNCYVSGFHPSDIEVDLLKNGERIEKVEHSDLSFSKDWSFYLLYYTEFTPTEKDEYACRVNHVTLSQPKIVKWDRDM

Q: For 1-B10-9 (from UniProt P0DOX5 233-449), which Kd is on record?
A: The Kd was 119 nM.

Q: Which Kd does the source give for “novel IgG1 Fc monomer (sFc) (from UniProt P0DOX5 233-449)” here?
A: Its Kd is 106 nM.
